One test addresses o.a. B10v5. Briefly: -; apparent KD.
The next test concerns the target bp.CS06xB10v5. Briefly: -; apparent KD.

B1: hu c-Met (receptor)
chain: ECKEALAKSEMNVNMKYQLPNFTAETPIQNVILHEHHIFLGATNYIYVLNEEDLQKVAEYKTGPVLEHPDCFPCQDCSSKANLSGGVWKDNINMALVVDTYYDDQLISCGSVNRGTCQRHVFPHNHTADIQSEVHCIFSPQIEEPSQCPDCVVSALGAKVLSSVKDRFINFFVGNTINSSYFPDHPLHSISVRRLKETKDGFMFLTDQSYIDVLPEFRDSYPIKYVHAFESNNFIYFLTVQRETLDAQTFHTRIIRFCSINSGLHSYMEMPLECILTEKRKKRSTKKEVFNILQAAYVSKPGAQLARQIGASLNDDILFGVFAQSKPDSAEPMDRSAMCAFPIKYVNDFFNKIVNKNNVRCLQHFYGPNHEHCFNRTLLRNSSGCEARRDEYRTEFTTALQRVDLFMGQFSEVLLTSISTFIKGDLTIANLGTSEGRFMQVVVSRSGPSTPHVNFLLDSHPVSPEVIVEHTLNQNGYTLVITGKKITKIPLNGLGCRHFQSCSQCLSAPPFVQCGWCHDKCVRSEECLSGTWTQQICLPAIYKVFPNSAPLEGGTRLTICGWDFGFRRNNKFDLKKTRVLLGNESCTLTLSESTMNTLKCTVGPAMNKHFNMSIIISNGHGTTQYSTFSYVDPVITSISPKYGPMAGGTLLTLTGNYLNSGNSRHISIGGKTCTLKSVSNSILECYTPAQTISTEFAVKLKIDLANRETSIFSYREDPIVYEIHPTKSFISGGSTITGVGKNLNSVSVPRMVINVHEAGRNFTVACQHRSNSEIICCTTPSLQQLNLQLPLKTKAFFMLDGILSKYFDLIYVHNPVFKPFEKPVMISMGNENVLEIKGNDIDPEAVKGEVLKVGNKSCENIHLHSEAVLCTVPNDLLKLNSELNIEWKQAISSTVLGKVIVQPDQNFT
For the molecule B1, the Kd in the test with o.a. B10v5 is 0.417 nM; with bp.CS06xB10v5, 0.0196 nM.

The values above are taken from US20190248907A1 (published 2019).
